# Measured values from PMC9103930.
# How the values were obtained:
# [1] = target: Deinococcus grandis Dps, wild type (Deinococcus grandis); assay: SAXS; solution SAXS (batch and SEC-SAXS), 50 mM MOPS pH 7.0 with 50-480 mM NaCl (WT) or 50 and 230 mM NaCl (∆N); ab initio models (GASBOR, DAMMIN) with P23 symmetry set
# [2] = target: Deinococcus grandis Dps tailless variant ∆N (lacking the first 46 residues) (Deinococcus grandis); assay: as above
# [3] = target: Deinococcus grandis Dps tailless variant ∆N (lacking the first 46 residues) (Deinococcus grandis); assay: SEC + other: dynamic light scattering; Superdex 200 10/300 GL calibrated with protein standards, and DLS at 25 °C; 200 mM MOPS pH 7.0, 200 mM NaCl; WT also in 50 mM MOPS pH 7.0 with 50-480 mM NaCl; apparent molecular mass and hydrodynamic diameter of the oligomer
Substance,stoichiometry N [1],stoichiometry N [2],stoichiometry N [3]
"Deinococcus grandis Dps, wild type (from UniProt A0A100HLL5 1-214) (natural protein)",12,,
Deinococcus grandis Dps tailless variant ∆N (lacking the first 46 residues) (from UniProt A0A100HLL5 47-205) (domain or fragment),,12,12
